The values that follow come from patent US20260116980A1.

The test addresses B7H3 on H358 tumor cells (UniProt Q5ZPR3). The test is described as follows: FACS on H358 cells, 1 h on ice, fluorescence-labelled anti-human Fc.

Sequence of B7H3 on H358 tumor cells (Q5ZPR3 29-534): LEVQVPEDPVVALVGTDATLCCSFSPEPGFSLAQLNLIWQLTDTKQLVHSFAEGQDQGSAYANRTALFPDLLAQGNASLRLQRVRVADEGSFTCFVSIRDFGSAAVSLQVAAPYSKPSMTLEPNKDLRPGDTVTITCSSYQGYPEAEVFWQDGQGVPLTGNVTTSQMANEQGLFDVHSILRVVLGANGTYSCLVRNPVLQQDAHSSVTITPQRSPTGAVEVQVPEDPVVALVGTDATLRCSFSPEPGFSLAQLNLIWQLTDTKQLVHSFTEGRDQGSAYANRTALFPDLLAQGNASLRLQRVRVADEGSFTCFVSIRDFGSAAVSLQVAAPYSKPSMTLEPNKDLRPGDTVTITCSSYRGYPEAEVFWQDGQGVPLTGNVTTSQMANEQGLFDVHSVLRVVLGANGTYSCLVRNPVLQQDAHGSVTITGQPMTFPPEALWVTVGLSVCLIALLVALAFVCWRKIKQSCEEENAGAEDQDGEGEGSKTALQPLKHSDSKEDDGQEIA

“MABX-9001a (a humanized anti-B7H3 IgG1 monoclonal antibody used for DS-7300a)” registered an EC50 (read off the curve) of 1 nM.
